{"source": "the RNAGym collection of RNA variant scans (doi:10.7554/elife.90254)", "parents": {"B1": {"name": "LINE1-mini (parent)", "chain": "GGCAGAGCUCAACACAGCGUGGCAAAGUGGCUGUGGCUAGACUGCC"}}}
{"variants_of": "B1", "assay": "self-cleavage, relative activity (ratio to wild type); higher = more cleavage; in vitro, sequencing; the parent is a self-cleaving ribozyme"}
{"variant": "GGCAGAGCUCAACACAGAGUGGCAAAGUGGCUGAGGCUAGACUGCC", "note": "[C18A U34A]", "self-cleavage": 0.03}
{"variant": "GGCAGAACUCAACACAGCGUGGCAAAGGGGCUGUGGCUAGACUGCC", "note": "[G7A U28G]", "self-cleavage": 0.16}
{"variant": "GGCAGAGCUGAACACAGCUUGGCAAAGUGGCUGUGGCUAGACUGCC", "note": "[C10G G19U]", "self-cleavage": 0.11}
{"variant": "GGCAGAGCUCAACACAGCGUGGCAAUGUGACUGUGGCUAGACUGCC", "note": "[A26U G30A]", "self-cleavage": 1.56}
{"variant": "GGCAGAGCUCAACACAGCGGGGGAAAGUGGCUGUGGCUAGACUGCC", "note": "[U20G C23G]", "self-cleavage": 0.38}
{"variant": "UGCAGGGCUCAACACAGCGUGGCAAAGUGGCUGUGGCUAGACUGCC", "note": "[G1U A6G]", "self-cleavage": 0.07}
{"variant": "GGAAGAGCUCAACACAGCGUGGCAAAGUUGCUGUGGCUAGACUGCC", "note": "[C3A G29U]", "self-cleavage": 0.71}
{"variant": "GGCAGAGCUCAACACAGCGUGACAAAGUGGCUGUGGCUAGAUUGCC", "note": "[G22A C42U]", "self-cleavage": 0.7}
{"variant": "GGCAGAGUUCUACACAGCGUGGCAAAGUGGCUGUGGCUAGACUGCC", "note": "[C8U A11U]", "self-cleavage": 0.03}
{"variant": "GGCAGAGCUUGACACAGCGUGGCAAAGUGGCUGUGGCUAGACUGCC", "note": "[C10U A11G]", "self-cleavage": 0.05}
{"variant": "GGCAGAGCUCAACACAGUGUCGCAAAGUGGCUGUGGCUAGACUGCC", "note": "[C18U G21C]", "self-cleavage": 1.13}
{"variant": "GGAAGAGCUCAACACAGCGUGGCAAAGUGGCUGUGGCUACACUGCC", "note": "[C3A G40C]", "self-cleavage": 0.19}
{"variant": "GGCAGAGAUCAACACAGCCUGGCAAAGUGGCUGUGGCUAGACUGCC", "note": "[C8A G19C]", "self-cleavage": 0.1}
{"variant": "GGCAGAGCUCAACACGGCGUGGCAAAGUGGCUGAGGCUAGACUGCC", "note": "[A16G U34A]", "self-cleavage": 0.02}
{"variant": "GGCAGAGCUCAACACAGCGUGGCAAAGUGGCUGUGAGUAGACUGCC", "note": "[G36A C37G]", "self-cleavage": 0.05}
{"variant": "GGCAGAGCUCGACUCAGCGUGGCAAAGUGGCUGUGGCUAGACUGCC", "note": "[A11G A14U]", "self-cleavage": 0.03}
{"variant": "GGCAGCGCUCAACACAGCGUGGCAAAGUGGCUGUGGCUAGUCUGCC", "note": "[A6C A41U]", "self-cleavage": 0.1}
{"variant": "GGCAGAGCUCAACACAGCGUGGCAAAGUUGCUGUGGCGAGACUGCC", "note": "[G29U U38G]", "self-cleavage": 0.02}
{"variant": "GGCUGAGCUCAACACAUCGUGGCAAAGUGGCUGUGGCUAGACUGCC", "note": "[A4U G17U]", "self-cleavage": 0.16}
{"variant": "GGCAGAGCUCAACACAGCGUGGCAAAGUUGCUGCGGCUAGACUGCC", "note": "[G29U U34C]", "self-cleavage": 0.13}
{"variant": "GGCAAAGCUGAACACAGCGUGGCAAAGUGGCUGUGGCUAGACUGCC", "note": "[G5A C10G]", "self-cleavage": 0.03}
{"variant": "GGCAGAGCUCAACACAGCGUGGCAAAGUGCCUGUGGCUAGACUACC", "note": "[G30C G44A]", "self-cleavage": 0.2}
{"variant": "GGCAUAGCUCAACACAGCGUGGCAAAGUGGCUGUGGUUAGACUGCC", "note": "[G5U C37U]", "self-cleavage": 0.05}
{"variant": "GGCAGAGUUUAACACAGCGUGGCAAAGUGGCUGUGGCUAGACUGCC", "note": "[C8U C10U]", "self-cleavage": 0.08}
{"variant": "GGCCGAGCUCAACACAGCGUGGCAAAGUGGCUGUGGCUAGACGGCC", "note": "[A4C U43G]", "self-cleavage": 0.17}
{"variant": "GGCAGAGCUCAACACAGCGUGGCUAAGUGGCUGUGGCUAGACCGCC", "note": "[A24U U43C]", "self-cleavage": 0.18}
{"variant": "GGCAGAGCGCAACACAGCGUGGCAAAGUGGCUGUGGCUAGACUGCA", "note": "[U9G C46A]", "self-cleavage": 0.1}
{"variant": "GGCAGAGCUCAACACAGCGUGGCAACGUGGCUCUGGCUAGACUGCC", "note": "[A26C G33C]", "self-cleavage": 0.07}
{"variant": "GGCAGAGCUCAGCACAGCGUGGAAAAGUGGCUGUGGCUAGACUGCC", "note": "[A12G C23A]", "self-cleavage": 0.02}
{"variant": "GGCAGAGCUCGACACAGCGUGGCAAAGUGGCUGUGGUUAGACUGCC", "note": "[A11G C37U]", "self-cleavage": 0.05}
{"variant": "GGCAGAGCUCAACACAGCGUGGCAAAGUGGCUGUAGCGAGACUGCC", "note": "[G35A U38G]", "self-cleavage": 0.02}
{"variant": "GGCAGUGCUCAACACAGCGUGGCAAAGUGGCUGUGGCUAGAGUGCC", "note": "[A6U C42G]", "self-cleavage": 0.05}
{"variant": "GGCAGAGCACAACACAGCGUGGCAAAGUGGCUGUGGCGAGACUGCC", "note": "[U9A U38G]", "self-cleavage": 0.22}
{"variant": "GGCAGAGCUCAACACACCGUGGCAAAGUGGCUGUGUCUAGACUGCC", "note": "[G17C G36U]", "self-cleavage": 0.08}
{"variant": "GGCAGAGCUCAACACAGCGUGGCAAAGUGGCUGUGGCUGGACGGCC", "note": "[A39G U43G]", "self-cleavage": 0.12}
{"variant": "GGCAGAGCUCAACACAGCGUGGCAUAGUGGCUGUGGCGAGACUGCC", "note": "[A25U U38G]", "self-cleavage": 0.03}
{"variant": "GGCAGAGCUCAACACAGCGUGGCAAAGUGGCUGUUGCUAGACUUCC", "note": "[G35U G44U]", "self-cleavage": 0.11}
{"variant": "GGUAGAGCUCAACACAGCGUGGCAAAGUGGCUGUGGCUAGGCUGCC", "note": "[C3U A41G]", "self-cleavage": 0.12}
{"variant": "GGUAGAGCUCAACACAGUGUGGCAAAGUGGCUGUGGCUAGACUGCC", "note": "[C3U C18U]", "self-cleavage": 0.42}
{"variant": "GGCCGAGCUCAACACAGCGUGGCAUAGUGGCUGUGGCUAGACUGCC", "note": "[A4C A25U]", "self-cleavage": 0.13}
{"variant": "GGCAGAGCUCAACACAGCGUGGCAAAGGGCCUGUGGCUAGACUGCC", "note": "[U28G G30C]", "self-cleavage": 0.77}
{"variant": "GGCAGAGCUCAACACUGCGUGGCUAAGUGGCUGUGGCUAGACUGCC", "note": "[A16U A24U]", "self-cleavage": 0.11}
{"variant": "GGCAGAGCUCAACACAGCGUGGCAAAGUGGAUGUGGCUAGACUGUC", "note": "[C31A C45U]", "self-cleavage": 0.13}
{"variant": "GCCAGAGCUCAACACAGCGUGGCAACGUGGCUGUGGCUAGACUGCC", "note": "[G2C A26C]", "self-cleavage": 0.11}
{"variant": "GACAGAGCUCAACACAGCGUGGUAAAGUGGCUGUGGCUAGACUGCC", "note": "[G2A C23U]", "self-cleavage": 2.33}
{"variant": "GGCAGAGCUCAACACGACGUGGCAAAGUGGCUGUGGCUAGACUGCC", "note": "[A16G G17A]", "self-cleavage": 0.15}
{"variant": "GGCAGAGCUCAACACAGCGUGGCAAAGUUGCUGUUGCUAGACUGCC", "note": "[G29U G35U]", "self-cleavage": 0.14}
{"variant": "GGCAGAACUCAACACGGCGUGGCAAAGUGGCUGUGGCUAGACUGCC", "note": "[G7A A16G]", "self-cleavage": 0.28}
{"variant": "GUCAGAGCUCAACCCAGCGUGGCAAAGUGGCUGUGGCUAGACUGCC", "note": "[G2U A14C]", "self-cleavage": 0.01}
{"variant": "GGCAGAGCUCGACACAGAGUGGCAAAGUGGCUGUGGCUAGACUGCC", "note": "[A11G C18A]", "self-cleavage": 0.04}
{"variant": "GGCAGAGCUCAACACAGCGUGGCAAAGGGGCUGUGCCUAGACUGCC", "note": "[U28G G36C]", "self-cleavage": 0.05}
{"variant": "GGCAGAGCUCAACACAGCCUGGCAAAGUGGCCGUGGCUAGACUGCC", "note": "[G19C U32C]", "self-cleavage": 0.14}
{"variant": "GGAAGAGCUCAACACAGGGUGGCAAAGUGGCUGUGGCUAGACUGCC", "note": "[C3A C18G]", "self-cleavage": 0.2}
{"variant": "GGCAGAGCUCAACACAGCGUGGCAAAGUGUCUGCGGCUAGACUGCC", "note": "[G30U U34C]", "self-cleavage": 0.05}
{"variant": "GGCAGAGCUCAACACCCCGUGGCAAAGUGGCUGUGGCUAGACUGCC", "note": "[A16C G17C]", "self-cleavage": 0.12}
{"variant": "GGCAGAGCUCAACAAAGCGUGGCAAAGUGGCUGUGGCUAUACUGCC", "note": "[C15A G40U]", "self-cleavage": 0.06}
